Patent publication US20200115434A1 (EUREKA THERAPEUTICS, published 2020)

Experiments:
[1] = biological target: T1, PE-labeled AFP158/HLA-A*02:01 tetramer (human, biotinylated via the BSP peptide linked to the C-terminal end of the extracellular domain); experiment: flow cytometry, PE-labelled tetramer on transduced J.RT3-T3.5 cells
T1 construct: also called AFP158 tetramer; AFP158/HLA-A*02:01 tetramers; not shown: BSP peptide (BirA biotinylation site) at the C-terminus

[2] = biological target: T1, PE-labeled AFP158/HLA-A*02:01 tetramer; experiment: flow cytometry, PE-labelled tetramer on transduced Jurkat cells

B1: anti-AFP158/HLA-A*02:01-abTCR-3 (other)
chain 1: EVQLVQSGAEVKKPGESLTISCKASGYSFPNYWITWVRQMSGGGLEWMGRIDPGDSYTTYNPSFQGHVTISIDKSTNTAYLHWNSLKASDTAMYYCARYYVSLVDIWGQGTLVTVSSASTKGPSVFPLAPSSKSTSGGTAALGCLVKDYFPEPVTVSWNSGALTSGVHTFPAVLQSSGLYSLSSVVTVPSSSLGTQTYICNVNHKPSNTKVDKRVEPKSCESSCDVKLVEKSFETDTNLNFQNLSVIGFRILLLKVAGFNLLMTLRLWSSDYKDHDGDYKDHDIDYKDDDDK
chain 2: QSVLTQPASVSGSPGQSITISCTGTSSDVGGYNYVSWYQQHPGKAPKLMIYDVNNRPSEVSNRFSGSKSGNTASLTISGLQAEDEADYYCSSYTTGSRAVFGGGTKLTVLGQPKANPTVTLFPPSSEELQANKATLVCLISDFYPGAVTVAWKADGSPVKAGVETTKPSKQSNNKYAASSYLSLTPEQWKSHRSYSCQVTHEGSTVEKTVAPTECSADCGFTSVSYQQGVLSATILYEILLGKATLYAVLVSALVLMAMVKRKDFYPYDVPDYA
notes: the junction between chain and tag is not described
- binding result [1]: binds

B2: anti-AFP158/HLA-A*02:01-abTCR-4 (other)
chain 1: QSVLTQPASVSGSPGQSITISCTGTSSDVGGYNYVSWYQQHPGKAPKLMIYDVNNRPSEVSNRFSGSKSGNTASLTISGLQAEDEADYYCSSYTTGSRAVFGGGTKLTVLGQPKANPTVTLFPPSSEELQANKATLVCLISDFYPGAVTVAWKADGSPVKAGVETTKPSKQSNNKYAASSYLSLTPEQWKSHRSYSCQVTHEGSTVEKTVAPTECSESSCDVKLVEKSFETDTNLNFQNLSVIGFRILLLKVAGFNLLMTLRLWSSDYKDHDGDYKDHDIDYKDDDDK
chain 2: EVQLVQSGAEVKKPGESLTISCKASGYSFPNYWITWVRQMSGGGLEWMGRIDPGDSYTTYNPSFQGHVTISIDKSTNTAYLHWNSLKASDTAMYYCARYYVSLVDIWGQGTLVTVSSASTKGPSVFPLAPSSKSTSGGTAALGCLVKDYFPEPVTVSWNSGALTSGVHTFPAVLQSSGLYSLSSVVTVPSSSLGTQTYICNVNHKPSNTKVDKRVEPKSCADCGFTSVSYQQGVLSATILYEILLGKATLYAVLVSALVLMAMVKRKDFYPYDVPDYA
notes: as for B1
- binding result [2]: binds

B3: anti-AFP158/HLA-A*02:01-abTCR-5 (other)
chain 1: QSVLTQPASVSGSPGQSITISCTGTSSDVGGYNYVSWYQQHPGKAPKLMIYDVNNRPSEVSNRFSGSKSGNTASLTISGLQAEDEADYYCSSYTTGSRAVFGGGTKLTVLGQPKANPTVTLFPPSSEELQANKATLVCLISDFYPGAVTVAWKADGSPVKAGVETTKPSKQSNNKYAASSYLSLTPEQWKSHRSYSCQVTHEGSTVEKTVAPTECSDHVKPKETENTKQPSKSCHKPKAIVHTEKVNMMSLTVLGLRMLFAKTVAVNFLLTAKLFFLYPYDVPDYA
chain 2: EVQLVQSGAEVKKPGESLTISCKASGYSFPNYWITWVRQMSGGGLEWMGRIDPGDSYTTYNPSFQGHVTISIDKSTNTAYLHWNSLKASDTAMYYCARYYVSLVDIWGQGTLVTVSSASTKGPSVFPLAPSSKSTSGGTAALGCLVKDYFPEPVTVSWNSGALTSGVHTFPAVLQSSGLYSLSSVVTVPSSSLGTQTYICNVNHKPSNTKVDKRVEPKSCMDPKDNCSKDANDTLLLQLTNTSAYYMYLLLLLKSVVYFAIITCCLLRRTAFCCNGEKSDYKDHDGDYKDHDIDYKDDDDK
notes: as for B1
- binding result [2]: binds

B4: anti-AFP158/HLA-A*02:01-abTCR-6 (other)
chain 1: EVQLVQSGAEVKKPGESLTISCKASGYSFPNYWITWVRQMSGGGLEWMGRIDPGDSYTTYNPSFQGHVTISIDKSTNTAYLHWNSLKASDTAMYYCARYYVSLVDIWGQGTLVTVSSASTKGPSVFPLAPSSKSTSGGTAALGCLVKDYFPEPVTVSWNSGALTSGVHTFPAVLQSSGLYSLSSVVTVPSSSLGTQTYICNVNHKPSNTKVDKRVEPKSCDHVKPKETENTKQPSKSCHKPKAIVHTEKVNMMSLTVLGLRMLFAKTVAVNFLLTAKLFFLYPYDVPDYA
chain 2: QSVLTQPASVSGSPGQSITISCTGTSSDVGGYNYVSWYQQHPGKAPKLMIYDVNNRPSEVSNRFSGSKSGNTASLTISGLQAEDEADYYCSSYTTGSRAVFGGGTKLTVLGQPKANPTVTLFPPSSEELQANKATLVCLISDFYPGAVTVAWKADGSPVKAGVETTKPSKQSNNKYAASSYLSLTPEQWKSHRSYSCQVTHEGSTVEKTVAPTECSMDPKDNCSKDANDTLLLQLTNTSAYYMYLLLLLKSVVYFAIITCCLLRRTAFCCNGEKSDYKDHDGDYKDHDIDYKDDDDK
notes: as for B1
- binding result [2]: binds
